# Measurements reported in EP1759709B1 (Elan Pharmaceuticals Inc., dated 2013).
# Biological target: T1, human α4β1 integrin (human, UniProt P13612 34-1032; P05556 21-798)
# T1 construct: whole, on cells; also called VLA-4; alpha-4-beta-1 integrin
# Test: ELISA on L cells expressing α4β1 integrin; crude supernatants
row,binding result,Binder
1,binds,"reshaped human 21.6 antibody (La + Ha) (antibody, V domains shown, Expressed in Cos cells) VH: QVQLVQSGAEVKKPGASVKVSCKASGFNIKDTYIHWVRQAPGQRLEWMGRIDPANGYTKYDPKFQGRVTITADTSASTAYMELSSLRSEDTAVYYCAREGYYGNYGVYAMDYWGQGTLVTVSS VL: DIQMTQSPSSLSASVGDRVTITCKTSQDINKYMAWYQQTPGKAPRLLIHYTSALQPGIPSRFSGSGSGRDYTFTISSLQPEDIATYYCLQYDNLWTFGQGTKVEIK"
2,binds,"reshaped human 21.6 antibody (Lb + Ha) (antibody, V domains shown, Human kappa / human gamma-1 constant regions; tested as crude Cos supernatant; Lb is therefore built here from La with the stated change; also called version Lb in combination with version Ha) VH: QVQLVQSGAEVKKPGASVKVSCKASGFNIKDTYIHWVRQAPGQRLEWMGRIDPANGYTKYDPKFQGRVTITADTSASTAYMELSSLRSEDTAVYYCAREGYYGNYGVYAMDYWGQGTLVTVSS VL: DIQMTQSPSSLSASVGDRVTITCKTSQDINKYMAWYQQTPGKAPRLLIYYTSALQPGIPSRFSGSGSGRDYTFTISSLQPEDIATYYCLQYDNLWTFGQGTKVEIK"
